Reference: article PMC12416549 (2024)

T1: TNFR1 (Homo sapiens, UniProt P19438)
T1 chain: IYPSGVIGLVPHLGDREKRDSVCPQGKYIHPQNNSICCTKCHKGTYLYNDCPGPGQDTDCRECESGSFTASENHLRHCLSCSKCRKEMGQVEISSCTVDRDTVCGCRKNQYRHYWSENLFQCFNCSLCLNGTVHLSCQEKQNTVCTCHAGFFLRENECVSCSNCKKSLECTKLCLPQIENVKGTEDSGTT


Molecular target: T1, TNFR1
Assay: yeast display SC50

apparent Kd (screen) [nM]	Binder
3	L76W (designed binder) SMEEEVEKAAKEYEKKKKEAIEKHLEKLKAKDKEAAERFLKELEEAAKEYAKDEAKTMSEEEAKRRAKKYKEKVLWSELSEEEQKEIKEAEEKLVRTILKYVEEAAK
1.05	E5C (designed binder) SMEECVEKAAKEYEKKKKEAIEKHLEKLKAKDKEAAERFLKELEEAAKEYAKDEAKTMSEEEAKRRAKKYKEKVLLSELSEEEQKEIKEAEEKLVRTILKYVEEAAK
7.78	E42R (designed binder) SMEEEVEKAAKEYEKKKKEAIEKHLEKLKAKDKEAAERFLKRLEEAAKEYAKDEAKTMSEEEAKRRAKKYKEKVLLSELSEEEQKEIKEAEEKLVRTILKYVEEAAK
1.69	E60K (designed binder) SMEEEVEKAAKEYEKKKKEAIEKHLEKLKAKDKEAAERFLKELEEAAKEYAKDEAKTMSKEEAKRRAKKYKEKVLLSELSEEEQKEIKEAEEKLVRTILKYVEEAAK
0.718	E60Y (designed binder) SMEEEVEKAAKEYEKKKKEAIEKHLEKLKAKDKEAAERFLKELEEAAKEYAKDEAKTMSYEEAKRRAKKYKEKVLLSELSEEEQKEIKEAEEKLVRTILKYVEEAAK
0.446	E19S (designed binder) SMEEEVEKAAKEYEKKKKSAIEKHLEKLKAKDKEAAERFLKELEEAAKEYAKDEAKTMSEEEAKRRAKKYKEKVLLSELSEEEQKEIKEAEEKLVRTILKYVEEAAK
16.7	V74A (designed binder) SMEEEVEKAAKEYEKKKKEAIEKHLEKLKAKDKEAAERFLKELEEAAKEYAKDEAKTMSEEEAKRRAKKYKEKALLSELSEEEQKEIKEAEEKLVRTILKYVEEAAK
7.78	K56S (designed binder) SMEEEVEKAAKEYEKKKKEAIEKHLEKLKAKDKEAAERFLKELEEAAKEYAKDEASTMSEEEAKRRAKKYKEKVLLSELSEEEQKEIKEAEEKLVRTILKYVEEAAK
10.4	E49N (designed binder) SMEEEVEKAAKEYEKKKKEAIEKHLEKLKAKDKEAAERFLKELEEAAKNYAKDEAKTMSEEEAKRRAKKYKEKVLLSELSEEEQKEIKEAEEKLVRTILKYVEEAAK
10.4	V102F (designed binder) SMEEEVEKAAKEYEKKKKEAIEKHLEKLKAKDKEAAERFLKELEEAAKEYAKDEAKTMSEEEAKRRAKKYKEKVLLSELSEEEQKEIKEAEEKLVRTILKYFEEAAK
12.5	E7W (designed binder) SMEEEVWKAAKEYEKKKKEAIEKHLEKLKAKDKEAAERFLKELEEAAKEYAKDEAKTMSEEEAKRRAKKYKEKVLLSELSEEEQKEIKEAEEKLVRTILKYVEEAAK
13.8	K73T (designed binder) SMEEEVEKAAKEYEKKKKEAIEKHLEKLKAKDKEAAERFLKELEEAAKEYAKDEAKTMSEEEAKRRAKKYKETVLLSELSEEEQKEIKEAEEKLVRTILKYVEEAAK
1.16	F39L (designed binder) SMEEEVEKAAKEYEKKKKEAIEKHLEKLKAKDKEAAERLLKELEEAAKEYAKDEAKTMSEEEAKRRAKKYKEKVLLSELSEEEQKEIKEAEEKLVRTILKYVEEAAK
0.869	I21R (designed binder) SMEEEVEKAAKEYEKKKKEAREKHLEKLKAKDKEAAERFLKELEEAAKEYAKDEAKTMSEEEAKRRAKKYKEKVLLSELSEEEQKEIKEAEEKLVRTILKYVEEAAK
0.956	K85M (designed binder) SMEEEVEKAAKEYEKKKKEAIEKHLEKLKAKDKEAAERFLKELEEAAKEYAKDEAKTMSEEEAKRRAKKYKEKVLLSELSEEEQMEIKEAEEKLVRTILKYVEEAAK
8.56	Y70L (designed binder) SMEEEVEKAAKEYEKKKKEAIEKHLEKLKAKDKEAAERFLKELEEAAKEYAKDEAKTMSEEEAKRRAKKLKEKVLLSELSEEEQKEIKEAEEKLVRTILKYVEEAAK
1.05	E44N (designed binder) SMEEEVEKAAKEYEKKKKEAIEKHLEKLKAKDKEAAERFLKELNEAAKEYAKDEAKTMSEEEAKRRAKKYKEKVLLSELSEEEQKEIKEAEEKLVRTILKYVEEAAK
9.41	E49F (designed binder) SMEEEVEKAAKEYEKKKKEAIEKHLEKLKAKDKEAAERFLKELEEAAKFYAKDEAKTMSEEEAKRRAKKYKEKVLLSELSEEEQKEIKEAEEKLVRTILKYVEEAAK
0.49	S1E (designed binder) EMEEEVEKAAKEYEKKKKEAIEKHLEKLKAKDKEAAERFLKELEEAAKEYAKDEAKTMSEEEAKRRAKKYKEKVLLSELSEEEQKEIKEAEEKLVRTILKYVEEAAK
2.48	R96F (designed binder) SMEEEVEKAAKEYEKKKKEAIEKHLEKLKAKDKEAAERFLKELEEAAKEYAKDEAKTMSEEEAKRRAKKYKEKVLLSELSEEEQKEIKEAEEKLVFTILKYVEEAAK
0.446	K29S (designed binder) SMEEEVEKAAKEYEKKKKEAIEKHLEKLSAKDKEAAERFLKELEEAAKEYAKDEAKTMSEEEAKRRAKKYKEKVLLSELSEEEQKEIKEAEEKLVRTILKYVEEAAK
22.2	R66F (designed binder) SMEEEVEKAAKEYEKKKKEAIEKHLEKLKAKDKEAAERFLKELEEAAKEYAKDEAKTMSEEEAKRFAKKYKEKVLLSELSEEEQKEIKEAEEKLVRTILKYVEEAAK
3	R38D (designed binder) SMEEEVEKAAKEYEKKKKEAIEKHLEKLKAKDKEAAEDFLKELEEAAKEYAKDEAKTMSEEEAKRRAKKYKEKVLLSELSEEEQKEIKEAEEKLVRTILKYVEEAAK
0.446	H24N (designed binder) SMEEEVEKAAKEYEKKKKEAIEKNLEKLKAKDKEAAERFLKELEEAAKEYAKDEAKTMSEEEAKRRAKKYKEKVLLSELSEEEQKEIKEAEEKLVRTILKYVEEAAK
0.49	K88H (designed binder) SMEEEVEKAAKEYEKKKKEAIEKHLEKLKAKDKEAAERFLKELEEAAKEYAKDEAKTMSEEEAKRRAKKYKEKVLLSELSEEEQKEIHEAEEKLVRTILKYVEEAAK
0.539	A20N (designed binder) SMEEEVEKAAKEYEKKKKENIEKHLEKLKAKDKEAAERFLKELEEAAKEYAKDEAKTMSEEEAKRRAKKYKEKVLLSELSEEEQKEIKEAEEKLVRTILKYVEEAAK
